Like-named read-outs stand apart in the source and are kept apart here.
Legend:
[1] = target: eIF4GII_(551–745)/eIF4E complex (human | murine) (UniProt O43432); test: SEC-MALS; Superdex 200 10/300 in assay buffer, miniDAWN light scattering instrument, 100 µg sample
[2] = target: human eIF4GII residues 551–745 (human) (UniProt O43432); test: ITC; MicroCal ITC microcalorimeter; the ligand titrated into the protein in the cell (cell about 10× lower than titrant); 25°C; 20 mM Hepes/KOH pH 7.4, 150 mM KCl, 1 mM EDTA; three experiments
[3] = target: eIF4GII_(551–745)/eIF4E complex (human | murine) (UniProt O43432); test: as above
[4] = target: recombinant full-length murine eIF4E (murine) (UniProt P63073); test: SEC-MALS; static light scattering after 10 min of complex formation
Chain of recombinant full-length murine eIF4E (murine) (P63073 whole entry, the tested form may be a part): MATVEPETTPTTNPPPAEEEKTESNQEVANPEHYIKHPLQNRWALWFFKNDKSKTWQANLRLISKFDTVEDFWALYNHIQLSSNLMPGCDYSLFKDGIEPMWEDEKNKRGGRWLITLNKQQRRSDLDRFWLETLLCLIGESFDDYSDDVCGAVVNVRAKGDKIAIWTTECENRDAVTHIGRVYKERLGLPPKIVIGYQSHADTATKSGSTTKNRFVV

[5] = target: human eIF4GII residues 551–745 (human) (UniProt O43432); test: ITC; MicroCal ITC microcalorimeter; the ligand titrated into the protein in the cell (cell about 10× lower than titrant); 25°C; 20 mM Hepes/KOH pH 7.4, 150 mM KCl, 1 mM EDTA; three experiments; remark: listed apart in the source
[6] = target: HRV2 2A^proC106S (human rhinovirus 2); test: SEC-MALS; Superdex 200 10/300 in assay buffer, miniDAWN light scattering instrument, 100 µg sample
[7] = target: recombinant full-length murine eIF4E (murine) (UniProt P63073); test: ITC; MicroCal ITC microcalorimeter; the ligand titrated into the protein in the cell (cell about 10× lower than titrant); 25°C; 20 mM Hepes/KOH pH 7.4, 150 mM KCl, 1 mM EDTA; three experiments
[8] = target: recombinant full-length murine eIF4E (murine) (UniProt P63073); test: as above; remark: listed apart in the source
[9] = target: recombinant full-length murine eIF4E (murine) (UniProt P63073); test: SEC-MALS; static light scattering on eIF4E/2A^proC106S complexes formed overnight
[10] = target: T1, recombinant full-length murine eIF4E (murine, UniProt P63073 1-217); test: SEC-MALS; Superdex 200 10/300 in assay buffer, miniDAWN light scattering instrument, 100 µg sample; conditions: both partners purified
T1 sequence (P63073 whole entry): as the sequence (P63073 whole entry, the tested form may be a part) above

[11] = target: T1, recombinant full-length murine eIF4E; test: ITC; MicroCal ITC microcalorimeter; the ligand titrated into the protein in the cell (cell about 10× lower than titrant); 25°C; 20 mM Hepes/KOH pH 7.4, 150 mM KCl, 1 mM EDTA; three experiments; conditions: both partners purified

“CVB4 2A^proC110A with a N-terminal extension of eight VP1 residues (enzyme)” was tested. Which stoichiometry N [1] did it give?
Its stoichiometry N is 1.

And the Kd [2]?
Its Kd is 19 µM.

And the Kd [3]?
Its Kd is 19 µM.

With “HRV2 2A^pro bearing the mutations C106S and C138S (enzyme)” as the molecule, how does the stoichiometry N [4] read?
The stoichiometry N was 1.

HRV2 2A^proC106S (enzyme) was tested. Which Kd [5] did it give?
Its Kd is 86 µM.

And the stoichiometry N [6]?
Its stoichiometry N is 2.

What about the Kd [7] of the same molecule?
The Kd was 8 µM.

What about the Kd [2] of the same molecule?
Its Kd is 75 µM.

And the Kd [8]?
The Kd was 12 µM.

And the Kd [3]?
Its Kd is 5.1 µM.

And the stoichiometry N [9]?
Its stoichiometry N is 1.

B1: human eIF4GII residues 551–745 (domain or fragment, UniProt O43432 551-745, looked up)
chain: GFHPERDPSDLKKVKAVEENGEEAEPVRNGAESVSEGEGIDANSGSTDSSGDGVTFPFKPESWKPTDTEGKKQYDREFLLDFQFMPACIQKPEGLPPISDVVLDKINQPKLPMRTLDPRILPRGPDFTPAFADFGRQTPGGRGVPLLNVGSRRSQPGQRREPRKIITVSVKEDVHLKKAENAWKPSQKRDSQADD
Which results are given for B1?
stoichiometry N [10]: 1; Kd [11]: 0.042 µM

From PMC4815241 (Protein Science : A Publication of the Protein Society, 2015)
